Source: publication PMC2879597 (Structure (London, England : 1993), 2010)

What was measured:
[1] = biological target: T1, IL-22/sIL-22R1 binary complex (UniProt Q9GZX6 34-179; Q8N6P7 16-228)
T1 sequence (looked up) 1: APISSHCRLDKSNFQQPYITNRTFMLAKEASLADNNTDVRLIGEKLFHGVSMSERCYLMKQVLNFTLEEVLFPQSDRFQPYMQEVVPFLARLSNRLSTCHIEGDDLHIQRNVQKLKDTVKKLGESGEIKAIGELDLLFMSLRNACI
T1 sequence (looked up) 2: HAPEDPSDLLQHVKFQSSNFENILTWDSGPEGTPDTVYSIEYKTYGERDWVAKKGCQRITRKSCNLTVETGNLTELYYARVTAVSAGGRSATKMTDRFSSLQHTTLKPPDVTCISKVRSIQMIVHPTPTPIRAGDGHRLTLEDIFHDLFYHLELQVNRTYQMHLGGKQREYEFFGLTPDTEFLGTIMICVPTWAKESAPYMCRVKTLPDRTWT

[2] = biological target: hIL-10/sIL-10R1 binary complex (human | , UniProt P22301 19-178; Q13651 22-235); assay: SPR
hIL-10/sIL-10R1 binary complex, sequence (P22301 19-178, one chain of several): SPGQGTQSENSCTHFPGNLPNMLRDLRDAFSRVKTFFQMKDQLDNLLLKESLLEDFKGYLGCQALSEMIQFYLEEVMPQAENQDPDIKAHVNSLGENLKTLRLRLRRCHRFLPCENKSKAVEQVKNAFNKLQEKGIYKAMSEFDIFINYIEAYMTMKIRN

[3] = biological target: T2, cmvIL-10/sIL-10R1 binary complex (cytomegalovirus (CMV) | , UniProt P17150 20-175; Q13651 22-235); assay: SPR
T2 sequence 1: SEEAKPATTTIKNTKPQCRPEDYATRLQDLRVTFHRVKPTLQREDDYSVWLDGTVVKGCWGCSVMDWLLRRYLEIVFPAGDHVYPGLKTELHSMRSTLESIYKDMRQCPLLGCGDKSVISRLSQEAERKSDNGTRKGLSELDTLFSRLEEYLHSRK
T2 sequence 2: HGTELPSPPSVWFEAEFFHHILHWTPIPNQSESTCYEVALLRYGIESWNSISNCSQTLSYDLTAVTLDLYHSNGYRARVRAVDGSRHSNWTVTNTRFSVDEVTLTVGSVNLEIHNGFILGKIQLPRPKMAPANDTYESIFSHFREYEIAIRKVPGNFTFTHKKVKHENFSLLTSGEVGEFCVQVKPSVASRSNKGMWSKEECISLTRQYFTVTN

[4] = biological target: T1, IL-22/sIL-22R1 binary complex; assay: SPR

| Binder | Kd [1] | percent of wild-type binding (normalized RU) [2] | percent of wild-type binding (normalized RU) [3] | percent of wild-type binding (normalized RU) [4] |
| --- | --- | --- | --- | --- |
| sIL-10R2-NQ (soluble extracellular IL-10R2 chain with N49Q, N68Q, N102Q, N161Q) (receptor, human, UniProt Q08334 20-220, looked up) MVPPPENVRMNSVNFKNILQWESPAFAKGQLTFTAQYLSYRIFQDKCMQTTLTECDFSSLSKYGDHTLRVRAEFADEHSDWVQITFCPVDDTIIGPPGMQVEVLADSLHMRFLAPKIENEYETWTMKNVYNSWTYNVQYWKQGTDEKFQITPQYDFEVLRNLEPWTTYCVQVRGFLPDRNKAGEWSEPVCEQTTHDETVPS | 14 µM | – | – | – |
| glycosylated sIL-10R2 (receptor, human, UniProt Q08334 20-220, looked up, N-linked glycosylation sites N49, N68, N102 and N161 (glycosylated)) MVPPPENVRMNSVNFKNILQWESPAFAKGNLTFTAQYLSYRIFQDKCMNTTLTECDFSSLSKYGDHTLRVRAEFADEHSDWVNITFCPVDDTIIGPPGMQVEVLADSLHMRFLAPKIENEYETWTMKNVYNSWTYNVQYWKNGTDEKFQITPQYDFEVLRNLEPWTTYCVQVRGFLPDRNKAGEWSEPVCEQTTHDETVPS | 7 µM | – | – | – |
| sIL-10R2 Y56A (on sIL-10R2-NQ) (receptor, human, UniProt Q08334 20-220, looked up) MVPPPENVRMNSVNFKNILQWESPAFAKGQLTFTAQALSYRIFQDKCMQTTLTECDFSSLSKYGDHTLRVRAEFADEHSDWVQITFCPVDDTIIGPPGMQVEVLADSLHMRFLAPKIENEYETWTMKNVYNSWTYNVQYWKQGTDEKFQITPQYDFEVLRNLEPWTTYCVQVRGFLPDRNKAGEWSEPVCEQTTHDETVPS | – | ~20 % of WT | ~20 % of WT | – |
| sIL-10R2 Y59A (on sIL-10R2-NQ) (receptor, human, UniProt Q08334 20-220, looked up) MVPPPENVRMNSVNFKNILQWESPAFAKGQLTFTAQYLSARIFQDKCMQTTLTECDFSSLSKYGDHTLRVRAEFADEHSDWVQITFCPVDDTIIGPPGMQVEVLADSLHMRFLAPKIENEYETWTMKNVYNSWTYNVQYWKQGTDEKFQITPQYDFEVLRNLEPWTTYCVQVRGFLPDRNKAGEWSEPVCEQTTHDETVPS | – | ~50 % of WT | ~50 % of WT | ~50 % of WT |
| sIL-10R2 Y140A (on sIL-10R2-NQ) (receptor, human, UniProt Q08334 20-220, looked up) MVPPPENVRMNSVNFKNILQWESPAFAKGQLTFTAQYLSYRIFQDKCMQTTLTECDFSSLSKYGDHTLRVRAEFADEHSDWVQITFCPVDDTIIGPPGMQVEVLADSLHMRFLAPKIENEAETWTMKNVYNSWTYNVQYWKQGTDEKFQITPQYDFEVLRNLEPWTTYCVQVRGFLPDRNKAGEWSEPVCEQTTHDETVPS | – | ~20 % of WT | ~20 % of WT | – |
| sIL-10R2 Y173A (on sIL-10R2-NQ) (receptor, human, UniProt Q08334 20-220, looked up) MVPPPENVRMNSVNFKNILQWESPAFAKGQLTFTAQYLSYRIFQDKCMQTTLTECDFSSLSKYGDHTLRVRAEFADEHSDWVQITFCPVDDTIIGPPGMQVEVLADSLHMRFLAPKIENEYETWTMKNVYNSWTYNVQYWKQGTDEKFQITPQADFEVLRNLEPWTTYCVQVRGFLPDRNKAGEWSEPVCEQTTHDETVPS | – | – | – | 65 % of WT |
